What was measured:
Biotinylated tubulin [1] = target: Biotinylated tubulin (UniProt P02550); assay: LSPR (extinction maximum wavelength of gold nanoparticles) + fluorescence microscopy; long MT sample: as the short MT sample, then 10 volumes of 4 µM tubulin (4% Rhodamine-labeled) with 0.5 mM GMPCPP added, 20 more min at 37 °C before paclitaxel
Biotinylated tubulin [2] = target: Biotinylated tubulin (UniProt P02550); assay: LSPR (extinction maximum wavelength of gold nanoparticles) + fluorescence microscopy; short MT sample: biotinylated tubulin (7% of the tubulin mix, with 4% Rhodamine-labeled tubulin) held on 80 nm biotin-PEG AuNPs through neutravidin; BRB80 pH 6.8, 0.025% Tween 20; GMPCPP, 37 °C for 30 min; stabilised with 10 µM paclitaxel; spectra at room temperature

Porcine tubulin (α/β-tubulin heterodimer subunits) (from UniProt P02550 1-451; P02554 1-445) (complex)
λmax (LSPR extinction maximum wavelength) (Biotinylated tubulin [1]): 553 nm | λmax (LSPR extinction maximum wavelength) (Biotinylated tubulin [2]): 553 nm

From article PMC6471214
